Experimental findings from PMC3764190, “Type I-E CRISPR-Cas Systems Discriminate Target from Non-Target DNA through Base Pairing-Independent PAM Recognition” are described below.

In data set [1] the target is T1, Cascade (Type I-E crRNA-guided surveillance complex, crRNA-loaded) (Escherichia coli K12 (expressed in …, UniProt Q46901;P76632;Q46899;Q46898;Q46897 1-502;1-160;2-363;1-224;2-199)).
T1 sequence 1: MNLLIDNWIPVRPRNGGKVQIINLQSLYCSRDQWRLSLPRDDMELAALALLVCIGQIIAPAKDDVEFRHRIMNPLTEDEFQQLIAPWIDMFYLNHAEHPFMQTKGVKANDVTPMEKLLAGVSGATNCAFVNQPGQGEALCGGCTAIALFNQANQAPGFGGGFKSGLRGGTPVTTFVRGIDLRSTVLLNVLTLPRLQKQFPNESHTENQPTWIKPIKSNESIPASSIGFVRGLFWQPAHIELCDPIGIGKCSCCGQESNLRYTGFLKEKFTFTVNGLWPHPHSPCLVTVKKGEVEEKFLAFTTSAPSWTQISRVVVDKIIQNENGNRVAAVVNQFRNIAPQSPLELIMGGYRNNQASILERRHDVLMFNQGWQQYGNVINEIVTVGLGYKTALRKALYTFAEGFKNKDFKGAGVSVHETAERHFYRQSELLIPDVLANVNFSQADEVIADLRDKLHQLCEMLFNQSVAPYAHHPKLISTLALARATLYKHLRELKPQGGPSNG
T1 sequence 2: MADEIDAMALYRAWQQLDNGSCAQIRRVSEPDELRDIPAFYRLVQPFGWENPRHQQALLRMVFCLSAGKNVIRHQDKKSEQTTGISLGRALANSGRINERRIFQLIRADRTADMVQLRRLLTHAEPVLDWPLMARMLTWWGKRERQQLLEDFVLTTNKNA
T1 sequence 3: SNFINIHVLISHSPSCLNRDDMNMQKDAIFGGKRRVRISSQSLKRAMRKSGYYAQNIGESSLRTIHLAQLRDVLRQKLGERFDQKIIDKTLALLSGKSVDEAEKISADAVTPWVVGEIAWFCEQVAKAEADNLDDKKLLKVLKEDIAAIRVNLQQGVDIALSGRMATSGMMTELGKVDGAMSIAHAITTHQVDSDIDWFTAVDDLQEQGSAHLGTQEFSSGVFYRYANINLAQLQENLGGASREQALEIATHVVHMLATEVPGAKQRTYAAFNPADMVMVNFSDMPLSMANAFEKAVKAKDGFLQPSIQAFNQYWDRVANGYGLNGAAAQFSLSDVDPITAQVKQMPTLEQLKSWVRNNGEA
T1 sequence 4: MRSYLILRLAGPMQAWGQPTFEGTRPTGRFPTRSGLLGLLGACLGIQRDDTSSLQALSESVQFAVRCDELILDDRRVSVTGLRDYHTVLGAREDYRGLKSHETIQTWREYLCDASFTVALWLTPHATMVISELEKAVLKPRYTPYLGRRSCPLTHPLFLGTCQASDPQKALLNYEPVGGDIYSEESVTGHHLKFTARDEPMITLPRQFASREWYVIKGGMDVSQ
T1 sequence 5: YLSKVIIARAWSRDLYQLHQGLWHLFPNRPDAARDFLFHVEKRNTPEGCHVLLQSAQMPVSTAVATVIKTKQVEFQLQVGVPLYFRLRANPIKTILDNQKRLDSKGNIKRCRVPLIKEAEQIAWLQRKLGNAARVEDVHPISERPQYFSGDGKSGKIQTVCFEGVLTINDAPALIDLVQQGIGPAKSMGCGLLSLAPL
Nature of the data set: EMSA; g8C-2A crRNA; slightly reduced affinity; EMSA with 32P-labelled dsDNA; buffer, salt, pH and temperature not stated (as in ref 29); Kd from fraction bound = [Cascade]/(Kd+[Cascade]). Particulars: protein: recombinant; copies: 1;2;6;1;1; label: 5'-32P on DNA; guide / target / displaced; DNA blunt duplex. (In EMSA bound probe runs differently from free probe, usually more slowly.)

Data set [2] has as its target T1, Cascade (Type I-E crRNA-guided …). Nature of the data set: EMSA; g8G-1T crRNA; EMSA with 32P-labelled dsDNA; buffer, salt, pH and temperature not stated (as in ref 29); Kd from fraction bound = [Cascade]/(Kd+[Cascade]). Particulars: protein: recombinant; copies: 1;2;6;1;1; label: 5'-32P on DNA; guide / target / displaced; DNA blunt duplex.
The target is the same in data set [3]. Nature of the data set: EMSA; WT crRNA; EMSA with 32P-labelled dsDNA; buffer, salt, pH and temperature not stated (as in ref 29); Kd from fraction bound = [Cascade]/(Kd+[Cascade]). Particulars: protein: recombinant, copies: 1;2;6;1;1, label: 5'-32P on DNA, DNA blunt duplex.

B1: g8C-2A crRNA + CTT PAM probe (mixed)
RNA: AUAAACAGCUGUCUUUCGCUGCUGAGGGUGACGAUCCCGCGAGUUCCCCGCGCCAGCGGGG
DNA 1: TTAAAGGCCGCTTTTGCGGGATCGTCACCCTCAGCAGCGAAAGACAGCTTCGGAACGAGGGTAGC
DNA 2: GCTACCCTCGTTCCGAAGCTGTCTTTCGCTGCTGAGGGTGACGATCCCGCAAAAGCGGCCTTTAA
The term Kd denotes the concentration at which binding is half-saturated. Take B1: the Kd in data set [1] stood at 60 ± 12 nM.

B2: g8G-1T crRNA + CTC PAM probe (mixed)
RNA: AUAAACCUCUGUCUUUCGCUGCUGAGGGUGACGAUCCCGCGAGUUCCCCGCGCCAGCGGGG
DNA 1: TTAAAGGCCGCTTTTGCGGGATCGTCACCCTCAGCAGCGAAAGACAGCTCCGGAACGAGGGTAGC
DNA 2: GCTACCCTCGTTCCGGAGCTGTCTTTCGCTGCTGAGGGTGACGATCCCGCAAAAGCGGCCTTTAA
B2: the binding result in data set [2] is on record as “binds”.

B3: WT g8 crRNA + CTC PAM (GAG) M13 probe (mixed)
RNA: AUAAACCGCUGUCUUUCGCUGCUGAGGGUGACGAUCCCGCGAGUUCCCCGCGCCAGCGGGG
DNA 1: TTAAAGGCCGCTTTTGCGGGATCGTCACCCTCAGCAGCGAAAGACAGCTCCGGAACGAGGGTAGC
DNA 2: GCTACCCTCGTTCCGGAGCTGTCTTTCGCTGCTGAGGGTGACGATCCCGCAAAAGCGGCCTTTAA
B3: the binding result in data set [3] (guide / target / displaced) is on record as “binds”.

B4: g8G-1T crRNA + CAT PAM probe (mixed)
RNA: AUAAACCUCUGUCUUUCGCUGCUGAGGGUGACGAUCCCGCGAGUUCCCCGCGCCAGCGGGG
DNA 1: TTAAAGGCCGCTTTTGCGGGATCGTCACCCTCAGCAGCGAAAGACAGCATCGGAACGAGGGTAGC
DNA 2: GCTACCCTCGTTCCGATGCTGTCTTTCGCTGCTGAGGGTGACGATCCCGCAAAAGCGGCCTTTAA
Consider B4, for which the binding result in data set [2] is listed as “binds”.

B5: WT g8 crRNA + CTT PAM (AAG) M13 probe (mixed)
RNA: AUAAACCGCUGUCUUUCGCUGCUGAGGGUGACGAUCCCGCGAGUUCCCCGCGCCAGCGGGG
DNA 1: TTAAAGGCCGCTTTTGCGGGATCGTCACCCTCAGCAGCGAAAGACAGCTTCGGAACGAGGGTAGC
DNA 2: GCTACCCTCGTTCCGAAGCTGTCTTTCGCTGCTGAGGGTGACGATCCCGCAAAAGCGGCCTTTAA
B5: in data set [3] (guide / target / displaced), the binding result is recorded as “binds”.

B6: g8G-1T crRNA + CCT PAM probe (mixed)
RNA: AUAAACCUCUGUCUUUCGCUGCUGAGGGUGACGAUCCCGCGAGUUCCCCGCGCCAGCGGGG
DNA 1: TTAAAGGCCGCTTTTGCGGGATCGTCACCCTCAGCAGCGAAAGACAGCCTCGGAACGAGGGTAGC
DNA 2: GCTACCCTCGTTCCGAGGCTGTCTTTCGCTGCTGAGGGTGACGATCCCGCAAAAGCGGCCTTTAA
On to B6, for which, in data set [2], the binding result is recorded as “binds”.

B7: WT g8 crRNA + CCT PAM (AGG) M13 probe (mixed)
RNA: AUAAACCGCUGUCUUUCGCUGCUGAGGGUGACGAUCCCGCGAGUUCCCCGCGCCAGCGGGG
DNA 1: TTAAAGGCCGCTTTTGCGGGATCGTCACCCTCAGCAGCGAAAGACAGCCTCGGAACGAGGGTAGC
DNA 2: GCTACCCTCGTTCCGAGGCTGTCTTTCGCTGCTGAGGGTGACGATCCCGCAAAAGCGGCCTTTAA
With B7, in data set [3] (guide / target / displaced), the binding result is reported as “binds”.

B8: WT g8 crRNA + CAT PAM (ATG) M13 probe (mixed)
RNA: AUAAACCGCUGUCUUUCGCUGCUGAGGGUGACGAUCCCGCGAGUUCCCCGCGCCAGCGGGG
DNA 1: TTAAAGGCCGCTTTTGCGGGATCGTCACCCTCAGCAGCGAAAGACAGCATCGGAACGAGGGTAGC
DNA 2: GCTACCCTCGTTCCGATGCTGTCTTTCGCTGCTGAGGGTGACGATCCCGCAAAAGCGGCCTTTAA
Take B8: the binding result in data set [3] (guide RNA / target strand / displaced strand) was “binds”.

B9: g8G-1T crRNA + CTT PAM probe (mixed)
RNA: AUAAACCUCUGUCUUUCGCUGCUGAGGGUGACGAUCCCGCGAGUUCCCCGCGCCAGCGGGG
DNA 1: TTAAAGGCCGCTTTTGCGGGATCGTCACCCTCAGCAGCGAAAGACAGCTTCGGAACGAGGGTAGC
DNA 2: GCTACCCTCGTTCCGAAGCTGTCTTTCGCTGCTGAGGGTGACGATCCCGCAAAAGCGGCCTTTAA
Turning to B9, the binding result in data set [2] was “binds”.
